Reference: patent publication US20240239881A1
Read-outs that look alike come from different tables or passages of the source.

How the values were obtained:
[1] = target: recombinant biotinylated hAngiopoietin-2 protein (R&D, Cat. No.: BT623B/CF) (human) (UniProt O15123); test: ELISA: biotin Ang2 (R&D BT623B/CF) captured on coated streptavidin (SA), antibody titrated, anti-human IgG-HRP, OD450-OD620, GraphPad fit (fit of a flat control curve)
[2] = target: recombinant biotinylated hAngiopoietin-2 protein (R&D, Cat. No.: BT623B/CF) (human) (UniProt O15123); test: blocking ELISA: antibody titrated against biotinylated hAng2 (300 ng/ml final); blocked binding to coated hTie2 protein; Avidin-HRP detection (fit of a flat control curve)
[3] = target: recombinant biotinylated hAngiopoietin-2 protein (R&D, Cat. No.: BT623B/CF) (human) (UniProt O15123); test: as above; remark: listed apart in the source
[4] = target: Human ang2 protein (Sino Biological, Cat No.: 10691-H08H) (human) (UniProt O15123); test: ELISA: human ang2 protein (Sino Biological 10691-H08H) coated at 0.25 ug/ml, antibody titrated, HRP-conjugated secondary antibody, OD450-OD620, GraphPad fit (fit of a flat control curve)
[5] = target: Cynomolgus monkey Ang2 C-terminal domain (Lys274-Phe495) (cynomolgus monkey); test: ForteBio BLI, antibody on AHQ sensor, 100 nM antigen, 1:1 model
Sequence of Cynomolgus monkey Ang2 C-terminal domain (Lys274-Phe495) (cynomolgus monkey) (chain, as listed by the source, form in doubt): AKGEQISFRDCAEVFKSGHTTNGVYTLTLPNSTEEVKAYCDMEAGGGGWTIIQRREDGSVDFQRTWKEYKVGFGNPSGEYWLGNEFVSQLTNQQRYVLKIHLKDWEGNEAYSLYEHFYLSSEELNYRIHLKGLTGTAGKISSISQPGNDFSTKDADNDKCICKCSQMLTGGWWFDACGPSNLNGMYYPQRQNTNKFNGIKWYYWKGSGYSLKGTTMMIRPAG

Sequence of recombinant biotinylated hAngiopoietin-2 protein (R&D, Cat. No.: BT623B/CF) (human) (O15123 19-496 limits assumed): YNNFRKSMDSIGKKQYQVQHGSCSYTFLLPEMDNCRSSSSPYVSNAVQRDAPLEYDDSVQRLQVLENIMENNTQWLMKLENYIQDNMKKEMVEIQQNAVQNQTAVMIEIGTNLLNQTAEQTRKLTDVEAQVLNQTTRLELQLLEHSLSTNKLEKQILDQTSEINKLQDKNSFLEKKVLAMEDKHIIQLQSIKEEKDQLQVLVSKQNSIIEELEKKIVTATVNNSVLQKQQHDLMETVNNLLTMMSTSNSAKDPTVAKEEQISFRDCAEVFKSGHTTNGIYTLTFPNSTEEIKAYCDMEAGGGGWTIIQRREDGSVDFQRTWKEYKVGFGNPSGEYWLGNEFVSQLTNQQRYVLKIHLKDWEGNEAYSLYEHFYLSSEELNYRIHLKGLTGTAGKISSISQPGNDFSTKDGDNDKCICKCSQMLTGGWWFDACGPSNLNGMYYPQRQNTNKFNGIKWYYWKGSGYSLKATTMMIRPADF
Sequence of Human ang2 protein (Sino Biological, Cat No.: 10691-H08H) (human) (O15123 19-496 limits assumed): as above

EC50 [1] | IC50 [2] | IC50 [3] | EC50 [4] | Kd [5] | Substance
0.00807 nM | 16.9 nM | 24.8 nM | 16.8 nM | – | IgG (antibody)
– | – | – | – | 1.04 nM | Nesvacumab (Regeneron) (antibody)
